Results: patent US20230120677

Molecular target: Clover-SNAP-25-mRuby2 FRET sensor (UniProt P60880)
UniProt P60880, sequence (P60880 whole entry, looked up): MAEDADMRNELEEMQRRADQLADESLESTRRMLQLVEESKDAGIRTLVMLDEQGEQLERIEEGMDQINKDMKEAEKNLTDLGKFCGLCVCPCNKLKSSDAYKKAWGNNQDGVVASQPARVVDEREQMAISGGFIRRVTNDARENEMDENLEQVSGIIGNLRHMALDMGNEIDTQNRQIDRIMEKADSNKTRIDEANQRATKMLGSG

With “WT tALC (truncated wild-type BoNT/A-LC, residues 1-424)” the % activity relative to WT tALC was 100% and the “dynamic range in FRET upon SNAP-25 cleavage” value was 6-fold emission ratio in 30 minutes.
